This passage reports Kd results from paper PMC11408855, “The structure of the SufS–SufE complex reveals interactions driving protected persulfide transfer in iron-sulfur cluster biogenesis” (The Journal of Biological Chemistry, 2024).

Common to all, as to test: fluorescence polarisation; 100 nM BODIPY-FL-labeled EcSufE titrated with EcSufS; 50 mM Mops pH 8.0, 150 mM NaCl, 0.1 mg/ml bovine serum albumin, 25 °C, 30 min; absence of cysteine; apparent KD
Holding throughout (settings): both partners purified
(In general: In fluorescence polarisation assays a small probe gives low polarisation when free and higher when bound to something large.)

Test [1] has as its target T1, N353A EcSufS, C-terminal his-tagged (Escherichia coli, UniProt P77444 1-406, N353A, PLP (pyridoxal 5'-phosphate) cofactor).
T1 construct: EcSufS of Escherichia coli, UniProt P77444, with N353A; also called N353A SufS; source: E. coli BL21(DE3)Δsuf, pET44, autoinduction, purified (Ni2+ HisTrap HP); not shown: His tag, C-terminal, kept
T1 sequence: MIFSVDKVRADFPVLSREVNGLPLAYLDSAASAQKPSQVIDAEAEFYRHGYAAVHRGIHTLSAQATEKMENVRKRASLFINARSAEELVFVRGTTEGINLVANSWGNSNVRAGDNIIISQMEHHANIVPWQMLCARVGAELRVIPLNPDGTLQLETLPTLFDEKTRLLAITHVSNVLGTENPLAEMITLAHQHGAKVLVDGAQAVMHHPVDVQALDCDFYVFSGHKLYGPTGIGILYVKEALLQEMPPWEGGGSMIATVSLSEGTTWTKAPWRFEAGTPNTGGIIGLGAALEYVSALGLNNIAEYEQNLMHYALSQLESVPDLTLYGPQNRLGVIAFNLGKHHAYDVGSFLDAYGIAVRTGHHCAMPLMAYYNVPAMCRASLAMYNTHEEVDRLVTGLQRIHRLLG

For test [2], the target named is T2, S349A EcSufS, C-terminal his-tagged (Escherichia coli, UniProt P77444 1-406, S349A, PLP (pyridoxal 5'-phosphate) cofactor).
T2 construct: EcSufS of Escherichia coli, UniProt P77444, with S349A; also called S349A SufS; source: E. coli BL21(DE3)Δsuf, pET44, autoinduction, purified (Ni2+ HisTrap HP); not shown: His tag, C-terminal, kept
T2 sequence: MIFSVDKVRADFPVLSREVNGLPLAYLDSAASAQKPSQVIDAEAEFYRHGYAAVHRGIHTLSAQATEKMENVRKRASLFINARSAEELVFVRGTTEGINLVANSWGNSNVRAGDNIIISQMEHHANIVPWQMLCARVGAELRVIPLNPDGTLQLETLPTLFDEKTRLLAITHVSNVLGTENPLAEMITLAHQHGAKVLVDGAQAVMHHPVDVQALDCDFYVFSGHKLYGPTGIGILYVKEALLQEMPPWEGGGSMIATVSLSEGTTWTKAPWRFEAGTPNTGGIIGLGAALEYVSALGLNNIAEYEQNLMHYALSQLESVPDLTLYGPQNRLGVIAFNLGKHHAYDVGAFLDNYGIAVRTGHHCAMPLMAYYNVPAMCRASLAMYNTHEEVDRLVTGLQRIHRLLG

In test [3] the target is T3, EcSufS, C-terminal his-tagged (wild type) (Escherichia coli, UniProt P77444 1-406, PLP (pyridoxal 5'-phosphate) cofactor).
T3 construct: EcSufS, cysteine desulfurase SufS of Escherichia coli, UniProt P77444; the gene was cloned; also called WT EcSufS; cysteine desulfurase SufS; source: E. coli BL21(DE3)Δsuf, pET44, autoinduction, purified (Ni2+ HisTrap HP); not shown: His tag, C-terminal, kept
T3 sequence: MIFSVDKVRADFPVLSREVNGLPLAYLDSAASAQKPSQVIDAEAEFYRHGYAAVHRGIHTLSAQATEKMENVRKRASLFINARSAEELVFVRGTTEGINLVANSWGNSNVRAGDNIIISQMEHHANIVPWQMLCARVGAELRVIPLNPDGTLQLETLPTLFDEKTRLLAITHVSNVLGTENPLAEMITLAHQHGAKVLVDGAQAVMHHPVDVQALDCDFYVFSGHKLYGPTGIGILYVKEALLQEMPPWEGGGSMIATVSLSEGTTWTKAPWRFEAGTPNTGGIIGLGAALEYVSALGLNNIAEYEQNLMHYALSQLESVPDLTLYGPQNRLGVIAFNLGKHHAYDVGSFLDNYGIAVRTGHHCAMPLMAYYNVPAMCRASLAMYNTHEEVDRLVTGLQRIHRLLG

The target in test [4] is T4, Y345A EcSufS, C-terminal his-tagged (Escherichia coli, UniProt P77444 1-406, Y345A, PLP (pyridoxal 5'-phosphate) cofactor).
T4 construct: EcSufS of Escherichia coli, UniProt P77444, with Y345A; also called Y345A SufS; source: E. coli BL21(DE3)Δsuf, pET44, autoinduction, purified (Ni2+ HisTrap HP); not shown: His tag, C-terminal, kept
T4 sequence: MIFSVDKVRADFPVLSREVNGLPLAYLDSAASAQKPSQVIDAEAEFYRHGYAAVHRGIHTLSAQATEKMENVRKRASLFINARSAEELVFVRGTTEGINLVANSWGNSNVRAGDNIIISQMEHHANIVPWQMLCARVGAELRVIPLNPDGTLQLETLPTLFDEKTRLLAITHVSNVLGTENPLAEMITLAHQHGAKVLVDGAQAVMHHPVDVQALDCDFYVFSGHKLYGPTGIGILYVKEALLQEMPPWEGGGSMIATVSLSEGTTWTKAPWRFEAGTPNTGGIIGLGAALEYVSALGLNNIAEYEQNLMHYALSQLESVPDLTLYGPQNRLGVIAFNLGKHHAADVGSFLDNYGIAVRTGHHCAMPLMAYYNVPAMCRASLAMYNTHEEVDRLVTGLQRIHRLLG

B1: BODIPY-FL-labeled C51A/E107C EcSufE (natural protein, Escherichia coli)
chain: MALLPDKEKLLRNFLRCANWEEKYLYIIELGQRLPELRDEDRSPQNSIQGAQSQVWIVMRQNAQGIIELQGDSDAAIVKGLIAVVFILYDQMTPQDIVNFDVRPWFCKMALTQHLTPSRSQGLEAMIRAIRAKAAALS
modifications: BODIPY-FL maleimide label (labeling efficiency 60 to 80%)
notes: EcSufE, transpersulfurase SufE of Escherichia coli, UniProt P76194, with C51A and E107C; also called "WT" EcSufE (double mutant background); C51A/E107C EcSufE control
B1: the Kd in test [1] was 60 nM; in test [2] it was 2200 nM; in test [3], 5.2 µM; in test [4] it was > 20 µM.
